Test results reported in the supplement of paper PMC9112550, “Optimization of the antimicrobial peptide Bac7 by deep mutational scanning” (BMC Biology, 2022).

Test system: Escherichia coli TOP10
Assay: shrunken log2 fold change of peptide-encoding DNA abundance (4.5 h post-induction vs induction); higher = less antimicrobial activity (less host growth inhibition)
Settings: time post-induction: 4.5 h; library: site-saturation at positions 5, 18, 19, 20
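Further: peptides expressed intracellularly from a pBAD plasmid library in pooled LB shake-flask culture, induced with 0.3% L-arabinose, DNA abundance read by NGS, three biological replicates, DESeq2 with apeglm shrinkage.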

Sequence	shrunken log2 fold change
RRIRWRPPRLPRPRPRPWPMPRP	-0.0421
RRIRARPPRLPRPRPRPIKEPRP	-0.0357
RRIRQRPPRLPRPRPRPHFKPRP	-0.332
RRIRNRPPRLPRPRPRPQFKPRP	-0.3
RRIRRRPPRLPRPRPRPVELPRP	0.0415
RRIRQRPPRLPRPRPRPSWRPRP	0.0854
RRIRVRPPRLPRPRPRPRYIPRP	-0.458
RRIRERPPRLPRPRPRPHNWPRP	-0.363
RRIRPRPPRLPRPRPRPCDLPRP	-0.428
RRIRHRPPRLPRPRPRPDTLPRP	0.00779
RRIRQRPPRLPRPRPRPVGDPRP	0.203
RRIRQRPPRLPRPRPRPLYLPRP	-0.511
RRIRKRPPRLPRPRPRPKKDPRP	0.337
RRIRRRPPRLPRPRPRPERHPRP	0.549
RRIRYRPPRLPRPRPRPPGSPRP	0.0125
RRIRCRPPRLPRPRPRPQIMPRP	-0.352
RRIRWRPPRLPRPRPRPDAVPRP	0.4
RRIRMRPPRLPRPRPRPDDWPRP	3.03
RRIRARPPRLPRPRPRPMCGPRP	0.121
RRIRQRPPRLPRPRPRPHGPPRP	-0.102
RRIRFRPPRLPRPRPRPCRMPRP	-0.168
RRIRYRPPRLPRPRPRPDISPRP	-0.415
RRIRNRPPRLPRPRPRPSKCPRP	-0.126
RRIRFRPPRLPRPRPRPRFTPRP	0.0956
RRIRTRPPRLPRPRPRPKEKPRP	0.0414

Sequence	shrunken log2 fold change
RRIRHRPPRLPRPRPRPLFMPRP	-0.492
RRIRSRPPRLPRPRPRPMDCPRP	0.00208
RRIRLRPPRLPRPRPRPFDWPRP	-0.133
RRIRKRPPRLPRPRPRPLLSPRP	0.523
RRIRWRPPRLPRPRPRPQTMPRP	-0.00112
RRIRSRPPRLPRPRPRPQVRPRP	0.0563
RRIRYRPPRLPRPRPRPPGGPRP	0.259
RRIRKRPPRLPRPRPRPRKSPRP	0.727
RRIRQRPPRLPRPRPRPGFMPRP	-0.176
RRIRIRPPRLPRPRPRPVSGPRP	0.0231
RRIRMRPPRLPRPRPRPVSFPRP	0.000809
RRIRERPPRLPRPRPRPDYKPRP	-0.31
RRIRLRPPRLPRPRPRPTGFPRP	-0.158
RRIRHRPPRLPRPRPRPWRHPRP	-0.00865
RRIRARPPRLPRPRPRPIDPPRP	0.00727
RRIRGRPPRLPRPRPRPTRWPRP	0.739
RRIRIRPPRLPRPRPRPSCVPRP	-0.544
RRIRRRPPRLPRPRPRPYFTPRP	-0.432
RRIRARPPRLPRPRPRPGRVPRP	0.612
RRIRKRPPRLPRPRPRPTQAPRP	-0.00908
RRIRRRPPRLPRPRPRPSGHPRP	0.161
RRIRSRPPRLPRPRPRPERCPRP	0.0123
RRIRPRPPRLPRPRPRPFGIPRP	-0.21
RRIRGRPPRLPRPRPRPMDQPRP	0.489
RRIRNRPPRLPRPRPRPLCVPRP	-0.197

Sequence	shrunken log2 fold change
RRIRLRPPRLPRPRPRPCSMPRP	-0.00844
RRIRCRPPRLPRPRPRPENQPRP	-0.0366
RRIRRRPPRLPRPRPRPFVDPRP	0.243
RRIRYRPPRLPRPRPRPAQFPRP	0.0198
RRIRTRPPRLPRPRPRPHFRPRP	-0.284
RRIRRRPPRLPRPRPRPMKTPRP	0.0796
RRIRKRPPRLPRPRPRPCSMPRP	-0.00483
RRIRHRPPRLPRPRPRPMIYPRP	-0.105
RRIRFRPPRLPRPRPRPHIRPRP	-0.113
RRIRVRPPRLPRPRPRPNDTPRP	-0.228
RRIRCRPPRLPRPRPRPRPIPRP	0.266
RRIRFRPPRLPRPRPRPTGLPRP	-0.118
RRIRWRPPRLPRPRPRPCAMPRP	-0.272
RRIRTRPPRLPRPRPRPEKDPRP	-0.271
RRIRTRPPRLPRPRPRPVCFPRP	-0.104
RRIRTRPPRLPRPRPRPYSMPRP	-2.42
RRIRKRPPRLPRPRPRPGLQPRP	-0.00225
RRIRTRPPRLPRPRPRPACGPRP	0.282
RRIRARPPRLPRPRPRPIWPPRP	0.353
RRIRCRPPRLPRPRPRPNCWPRP	0.078
RRIRRRPPRLPRPRPRPPVNPRP	0.282
RRIRCRPPRLPRPRPRPMIWPRP	-0.0837
RRIRWRPPRLPRPRPRPTWPPRP	0.466
RRIRARPPRLPRPRPRPKTYPRP	-0.214
RRIRRRPPRLPRPRPRPVNTPRP	-0.0567

Sequence	shrunken log2 fold change
RRIRYRPPRLPRPRPRPILLPRP	-0.322
RRIRHRPPRLPRPRPRPQRDPRP	0.000147
RRIRRRPPRLPRPRPRPWVWPRP	0.00495
RRIRKRPPRLPRPRPRPQDYPRP	0.118
RRIRDRPPRLPRPRPRPGIFPRP	0.0908
RRIRFRPPRLPRPRPRPCEFPRP	0.0635
RRIRSRPPRLPRPRPRPFQAPRP	0.0408
RRIRYRPPRLPRPRPRPECCPRP	-0.0698
RRIRTRPPRLPRPRPRPINCPRP	0.00543
RRIRYRPPRLPRPRPRPMPTPRP	0.0288
RRIRVRPPRLPRPRPRPFRKPRP	-0.0712
RRIRRRPPRLPRPRPRPSIVPRP	0.26
RRIRTRPPRLPRPRPRPQCKPRP	-0.26
RRIRERPPRLPRPRPRPAWHPRP	0.324
RRIRQRPPRLPRPRPRPQEVPRP	-0.171
RRIRMRPPRLPRPRPRPYVEPRP	-0.133
RRIRLRPPRLPRPRPRPMLLPRP	-0.56
RRIRRRPPRLPRPRPRPRCAPRP	0.469
RRIRIRPPRLPRPRPRPSSRPRP	-0.538
RRIRQRPPRLPRPRPRPCVVPRP	0.0959
RRIRNRPPRLPRPRPRPYRGPRP	-0.0134
RRIRHRPPRLPRPRPRPKMGPRP	-0.00141
RRIRFRPPRLPRPRPRPCSCPRP	-0.879
RRIRPRPPRLPRPRPRPCQGPRP	0.056
RRIRMRPPRLPRPRPRPYQFPRP	-0.125

Sequence	shrunken log2 fold change
RRIRCRPPRLPRPRPRPMWWPRP	0.396
RRIRSRPPRLPRPRPRPNGKPRP	-0.437
RRIRQRPPRLPRPRPRPCNNPRP	-0.255
RRIRCRPPRLPRPRPRPCERPRP	-0.0644
RRIRWRPPRLPRPRPRPNLEPRP	0.322
RRIRIRPPRLPRPRPRPQSRPRP	-0.0532
RRIRRRPPRLPRPRPRPDKSPRP	0.00757
RRIRYRPPRLPRPRPRPLNWPRP	-0.594
RRIRERPPRLPRPRPRPFYSPRP	-0.795
RRIRKRPPRLPRPRPRPYMNPRP	-0.505
RRIRQRPPRLPRPRPRPTRLPRP	0.723
RRIRTRPPRLPRPRPRPQTCPRP	-0.176
RRIRGRPPRLPRPRPRPLLKPRP	1.39
RRIRHRPPRLPRPRPRPNPAPRP	-0.0505
RRIRHRPPRLPRPRPRPLQFPRP	-0.28
RRIRLRPPRLPRPRPRPLEYPRP	-0.116
RRIRWRPPRLPRPRPRPCMCPRP	-0.0735
RRIRWRPPRLPRPRPRPLSQPRP	0.0157
RRIRWRPPRLPRPRPRPAWRPRP	0.642
RRIRGRPPRLPRPRPRPFIAPRP	0.245
RRIRPRPPRLPRPRPRPVFYPRP	-0.316
RRIRWRPPRLPRPRPRPAKGPRP	-0.0312
RRIRQRPPRLPRPRPRPGDGPRP	0.415
RRIRPRPPRLPRPRPRPWDGPRP	-0.0681
RRIRCRPPRLPRPRPRPGNMPRP	-0.368

Sequence	shrunken log2 fold change
RRIRQRPPRLPRPRPRPQHMPRP	0.0284
RRIRSRPPRLPRPRPRPDQWPRP	-0.0262
RRIRSRPPRLPRPRPRPFFLPRP	-0.16
RRIRERPPRLPRPRPRPVFKPRP	-0.228
RRIRTRPPRLPRPRPRPATRPRP	0.0996
RRIRNRPPRLPRPRPRPFSFPRP	-0.186
RRIRCRPPRLPRPRPRPCESPRP	-0.0611
RRIRCRPPRLPRPRPRPVCQPRP	-0.102
RRIRKRPPRLPRPRPRPYIYPRP	-0.0483
RRIRIRPPRLPRPRPRPDRAPRP	-0.169
RRIRWRPPRLPRPRPRPDAEPRP	1.89
RRIRHRPPRLPRPRPRPHPCPRP	-0.612
RRIRQRPPRLPRPRPRPHRGPRP	0.0502
RRIRRRPPRLPRPRPRPAIPPRP	-0.0158
RRIRYRPPRLPRPRPRPRLYPRP	-0.247
RRIRPRPPRLPRPRPRPNEYPRP	-0.783
RRIRQRPPRLPRPRPRPVNSPRP	-0.0167
RRIRPRPPRLPRPRPRPGQYPRP	0.0431
RRIRERPPRLPRPRPRPNATPRP	0.287
RRIRPRPPRLPRPRPRPEWFPRP	0.341
RRIRERPPRLPRPRPRPAIAPRP	0.0488
RRIRNRPPRLPRPRPRPMYWPRP	-0.000123
RRIRNRPPRLPRPRPRPKICPRP	-0.262
RRIRMRPPRLPRPRPRPWGLPRP	0.0219
RRIRWRPPRLPRPRPRPPHNPRP	0.527
